The numbers were not newly measured in article PMC3057930, which cites them from elsewhere.

In this series the target is CaMKIIp (UniProt Q9UQM7).
Chain of CaMKIIp (Q9UQM7 293-312): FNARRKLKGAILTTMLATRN

In the case of “(Ca2+)2-CaM76-148 76-148 (from UniProt P0DP29)”, the dissociation constant Kd is 950 nM.
